Drawing on publication PMC8546573, this text covers other: ratio of PDGFRα/13H11 binding and percent of wild-type binding for 16 substances.

Experiment [1] has as its target biotinylated soluble human PDGFRα (UniProt P16234). The experiment can be described thus: cell-based binding (staining of transfected 293E cells with soluble PDGFRα and 13H11 scFv). As to conditions: read off a plot.
The target in experiment [2] is HCMV gHgLgO trimer with full-length gH on HEK293-6E cells, gO R214A (human cytomegalovirus, strain AD169 | human cytomegalovirus, strain TR) (UniProt P12824). Description: flow cytometry on cells; HEK293-6E cells cotransfected with full-length gH, gL and gO (wt or mutant) stained with 4 μg/ml biotinylated PDGFRα in PBS with 0.5% BSA, room temperature, half an hour, then Alexa Fluor 647-streptavidin; PDGFRα staining set against staining by the gH antibody 13H11 and compared with wt. For orientation: Flow cytometry measures light scatter and fluorescence of single cells or particles in a stream.

Experiment [3] has as its target HCMV gHgLgO trimer with full-length gH on HEK293-6E cells, gO R236N/P238S (human cytomegalovirus, strain AD169 | human cytomegalovirus, strain TR) (UniProt P12824). The experiment is described as above.
Experiment [4] has as its target HCMV gHgLgO trimer with full-length gH on HEK293-6E cells, gO K359A (human cytomegalovirus, strain AD169 | human cytomegalovirus, strain TR) (UniProt P12824). The description is as above.
The target in experiment [5] is HCMV gHgLgO trimer with full-length gH on HEK293-6E cells, gO Y240A (human cytomegalovirus, strain AD169 | human cytomegalovirus, strain TR) (UniProt P12824). The experiment is described as above.
Experiment [6] concerns the target HCMV gHgLgO trimer with full-length gH on HEK293-6E cells, gO R236A (human cytomegalovirus, strain AD169 | human cytomegalovirus, strain TR) (UniProt P12824). The experiment is described as above.

Where only a bound is given, the exact number is not on record here.

In the case of “HCMV gHgLgO trimer with full-length gH on the surface of HEK293-6E cells, gO wild type (from UniProt P12824;P16832) gO:F113N”, in experiment [1], the other: ratio of PDGFRα/13H11 binding came out at 0.73.
For the substance “HCMV gHgLgO trimer with full-length gH on the surface of HEK293-6E cells, gO wild type (from UniProt P12824;P16832) gO:R338A”, in experiment [1], the other: ratio of PDGFRα/13H11 binding is 0.95.
Still for that read-out and setting: the same measure for “HCMV gHgLgO trimer with full-length gH on the surface of HEK293-6E cells, gO wild type (from UniProt P12824;P16832) gO:K194A”: 1.1; for “HCMV gHgLgO trimer with full-length gH on the surface of HEK293-6E cells, gO wild type (from UniProt P12824;P16832) gO:R119A”: 0.9; for “HCMV gHgLgO trimer with full-length gH on the surface of HEK293-6E cells, gO wild type (from UniProt P12824;P16832) gO:R239A”: 1.1.
On the same count and under the same terms, the same measure for “HCMV gHgLgO trimer with full-length gH on the surface of HEK293-6E cells, gO wild type (from UniProt P12824;P16832) gO:Y371A”: 1.1; for “HCMV gHgLgO trimer with full-length gH on the surface of HEK293-6E cells, gO wild type (from UniProt P12824;P16832) gO:Q117A”: 0.81.
“biotinylated soluble human PDGFRα (from UniProt P16234 24-528) (receptor)”: the percent of wild-type binding was < 33 % of wt in experiment [2]; 50 % of wt in experiment [3]; < 33 % of wt in experiment [4]; < 33 % of wt in experiment [5]; < 33 % of wt in experiment [6].
With “HCMV gHgLgO trimer with full-length gH on the surface of HEK293-6E cells, gO wild type (from UniProt P12824;P16832) gO:R232A”, the other: ratio of PDGFRα/13H11 binding in experiment [1] was determined as 0.96.
Still for that read-out and setting: the value for “HCMV gHgLgO trimer with full-length gH on the surface of HEK293-6E cells, gO wild type (from UniProt P12824;P16832) gO:K123A” was 0.87; that for “HCMV gHgLgO trimer with full-length gH on the surface of HEK293-6E cells, gO wild type (from UniProt P12824;P16832) gO:E346A” was 1.2.
The same measure, in the same setting: the value for “HCMV gHgLgO trimer with full-length gH on the surface of HEK293-6E cells, gO wild type (from UniProt P12824;P16832) gO:F113A” was 0.75; that for “HCMV gHgLgO trimer with full-length gH on the surface of HEK293-6E cells, gO wild type (from UniProt P12824;P16832) gO:T116A” was 0.62.
Same read-out and setting: the value for “HCMV gHgLgO trimer with full-length gH on the surface of HEK293-6E cells, gO wild type (from UniProt P12824;P16832) gO:P343A” was 1.2; that for “HCMV gHgLgO trimer with full-length gH on the surface of HEK293-6E cells, gO wild type (from UniProt P12824;P16832) gO:R349A” was 1; that for “HCMV gHgLgO trimer with full-length gH on the surface of HEK293-6E cells, gO wild type (from UniProt P12824;P16832) gO:F138A” was 0.82.
